Reference: the supplement of paper PMC6757056
± gives the standard deviation of the averaged measurements.

B1: library; a variant is named by its letters at N, in order (parent)
chain: GCUGUCACCGGUGUAUUACCCUAGUGGUCGACCGGUCUGAUGAGUCUNNNNNNAGACGAAACAGC

Experiments:
hypoxanthine [1] = variants of: B1; test: FACS-Seq fitted mean relative fluorescence mCherry/BFP without ligand (log10 relative fluorescence); ligand: hypoxanthine (xanthine aptamer); higher = higher reporter protein expression; conditions: HEK293T, ligand present: no
Outline: (§1)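 Sorting into 6 bins by mCherry/BFP followed 48 h of incubation with or without ligand. The cells were enriched HEK293T libraries lentivirally bearing an mCherry reporter with the ribozyme switch and an EF1α-BFP marker, and bin genomic DNA was PCR-amplified, barcoded and sequenced on MiSeq. Fluorescence is the fitted normal mean of the bin counts. Means were fitted on log10(mCherry/BFP), scaled to five spiked-in control ribozymes.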

hypoxanthine [2] = variants of: B1; test: normalized RNA/DNA level with ligand (relative to sTRSVctl = 100) (log10 (% of sTRSVctl)); ligand: hypoxanthine (xanthine aptamer); higher = less ribozyme self-cleavage, higher mRNA level; conditions: ligand concentration (+) RNA-Seq: 5 mM, HEK293T, reporter: mCherry (pCS4076), ligand present: yes
Outline: (§2)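 Total RNA, extracted with EDTA 72 h after HEK293T cells were transfected with 4 µg per 6-well well of reporter-linked ribozyme switch library plasmids, was reverse-transcribed, amplified, barcoded and sequenced. Ligand, if used, was added 1 h before transfection. RNA level was derived from RNA reads divided by DNA reads and normalized to a spiked-in non-cleaving sequence or to the top sequences. This was multiplied by 100 and log10-transformed, with the top set of 25 sequences and a ≥100 DNA read minimum.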

hypoxanthine [3] = variants of: B1; test: normalized RNA/DNA level without ligand (relative to sTRSVctl = 100) (log10 (% of sTRSVctl)); ligand: hypoxanthine (xanthine aptamer); higher = less ribozyme self-cleavage, higher mRNA level; conditions: HEK293T, reporter: mCherry (pCS4076), ligand present: no
Outline: as §2

hypoxanthine [4] = variants of: B1; test: FACS-Seq fitted mean relative fluorescence mCherry/BFP with ligand (log10 relative fluorescence); ligand: hypoxanthine (xanthine aptamer); ligand concentration (+) FACS-Seq: 5 mM; higher = higher reporter protein expression; conditions: HEK293T, ligand present: yes
Outline: as §1

## GUGGGA
Hypoxanthine [1]
  FACS-Seq fitted mean (log10): -0.0656 ± 0.016
Hypoxanthine [2]
  normalized RNA/DNA level with ligand (log10): 1.9229 ± 0.0017
Hypoxanthine [3]
  normalized RNA/DNA level without ligand (log10): 1.68 ± 0.053
Hypoxanthine [4]
  FACS-Seq fitted mean (log10): 0.178 ± 0.067

## GUGGGU
Hypoxanthine [1]
  FACS-Seq fitted mean (log10): 0.152 ± 0.061
Hypoxanthine [2]
  normalized RNA/DNA level with ligand (log10): 1.94 ± 0.021
Hypoxanthine [3]
  normalized RNA/DNA level without ligand (log10): 1.79 ± 0.018
Hypoxanthine [4]
  FACS-Seq fitted mean (log10): 0.626 ± 0.031

## UUCGGU
Hypoxanthine [1]
  FACS-Seq fitted mean (log10): 0.323 ± 0.015
Hypoxanthine [2]
  normalized RNA/DNA level with ligand (log10): 1.93 ± 0.044
Hypoxanthine [3]
  normalized RNA/DNA level without ligand (log10): 1.78 ± 0.036
Hypoxanthine [4]
  FACS-Seq fitted mean (log10): 0.492 ± 0.007

## AUGGUC
Hypoxanthine [1]
  FACS-Seq fitted mean (log10): 0.812 ± 0.048
Hypoxanthine [2]
  normalized RNA/DNA level with ligand (log10): 2 ± 0.036
Hypoxanthine [3]
  normalized RNA/DNA level without ligand (log10): 1.92 ± 0.033
Hypoxanthine [4]
  FACS-Seq fitted mean (log10): 0.6851 ± 0.0041

## AUGGUA
Hypoxanthine [1]
  FACS-Seq fitted mean (log10): 0.303 ± 0.033
Hypoxanthine [2]
  normalized RNA/DNA level with ligand (log10): 1.86 ± 0.045
Hypoxanthine [3]
  normalized RNA/DNA level without ligand (log10): 1.73 ± 0.048
Hypoxanthine [4]
  FACS-Seq fitted mean (log10): 0.304 ± 0.016

## AUGGUG
Hypoxanthine [1]
  FACS-Seq fitted mean (log10): -0.243 ± 0.17
Hypoxanthine [2]
  normalized RNA/DNA level with ligand (log10): 1.79 ± 0.062
Hypoxanthine [3]
  normalized RNA/DNA level without ligand (log10): 1.331 ± 0.0014
Hypoxanthine [4]
  FACS-Seq fitted mean (log10): 0.0458 ± 0.031

## UUGACG
Hypoxanthine [1]
  FACS-Seq fitted mean (log10): 0.486 ± 0.025
Hypoxanthine [2]
  normalized RNA/DNA level with ligand (log10): 1.93 ± 0.057
Hypoxanthine [3]
  normalized RNA/DNA level without ligand (log10): 1.831 ± 0.0085
Hypoxanthine [4]
  FACS-Seq fitted mean (log10): 0.5104 ± 0.00062

## UUGACA
Hypoxanthine [1]
  FACS-Seq fitted mean (log10): 0.459 ± 0.015
Hypoxanthine [2]
  normalized RNA/DNA level with ligand (log10): 1.95 ± 0.046
Hypoxanthine [3]
  normalized RNA/DNA level without ligand (log10): 1.87 ± 0.026
Hypoxanthine [4]
  FACS-Seq fitted mean (log10): 0.491 ± 0.048

## CUGAGG
Hypoxanthine [1]
  FACS-Seq fitted mean (log10): 0.424 ± 0.071
Hypoxanthine [2]
  normalized RNA/DNA level with ligand (log10): 1.91 ± 0.03
Hypoxanthine [3]
  normalized RNA/DNA level without ligand (log10): 1.58 ± 0.025
Hypoxanthine [4]
  FACS-Seq fitted mean (log10): 0.466 ± 0.031

## CUGAGA
Hypoxanthine [1]
  FACS-Seq fitted mean (log10): 0.665 ± 0.033
Hypoxanthine [2]
  normalized RNA/DNA level with ligand (log10): 1.93 ± 0.036
Hypoxanthine [3]
  normalized RNA/DNA level without ligand (log10): 1.77 ± 0.058
Hypoxanthine [4]
  FACS-Seq fitted mean (log10): 0.753 ± 0.0013

## GUGCUG
Hypoxanthine [1]
  FACS-Seq fitted mean (log10): 0.44 ± 0.068
Hypoxanthine [2]
  normalized RNA/DNA level with ligand (log10): 1.914 ± 0.019
Hypoxanthine [3]
  normalized RNA/DNA level without ligand (log10): 1.58 ± 0.025
Hypoxanthine [4]
  FACS-Seq fitted mean (log10): 0.542 ± 0.054

## GUGGUA
Hypoxanthine [1]
  FACS-Seq fitted mean (log10): 0.478 ± 0.079
Hypoxanthine [2]
  normalized RNA/DNA level with ligand (log10): 1.95 ± 0.026
Hypoxanthine [3]
  normalized RNA/DNA level without ligand (log10): 1.759 ± 0.016
Hypoxanthine [4]
  FACS-Seq fitted mean (log10): 0.585 ± 0.082

## GUGGUG
Hypoxanthine [1]
  FACS-Seq fitted mean (log10): 0.0578 ± 0.012
Hypoxanthine [2]
  normalized RNA/DNA level with ligand (log10): 1.83 ± 0.047
Hypoxanthine [3]
  normalized RNA/DNA level without ligand (log10): 1.33 ± 0.043
Hypoxanthine [4]
  FACS-Seq fitted mean (log10): 0.546 ± 0.02

## AUUAAG
Hypoxanthine [1]
  FACS-Seq fitted mean (log10): 0.351 ± 0.019
Hypoxanthine [2]
  normalized RNA/DNA level with ligand (log10): 1.86 ± 0.028
Hypoxanthine [3]
  normalized RNA/DNA level without ligand (log10): 1.48 ± 0.056
Hypoxanthine [4]
  FACS-Seq fitted mean (log10): 0.65 ± 0.069

## AUUAAU
Hypoxanthine [1]
  FACS-Seq fitted mean (log10): 0.51 ± 0.075
Hypoxanthine [2]
  normalized RNA/DNA level with ligand (log10): 1.89 ± 0.023
Hypoxanthine [3]
  normalized RNA/DNA level without ligand (log10): 1.774 ± 0.0011
Hypoxanthine [4]
  FACS-Seq fitted mean (log10): 0.566 ± 0.024

## AUUAAA
Hypoxanthine [1]
  FACS-Seq fitted mean (log10): 0.84 ± 0.0057
Hypoxanthine [2]
  normalized RNA/DNA level with ligand (log10): 1.89 ± 0.045
Hypoxanthine [3]
  normalized RNA/DNA level without ligand (log10): 1.78 ± 0.021
Hypoxanthine [4]
  FACS-Seq fitted mean (log10): 0.732 ± 0.092

## GUGUAG
Hypoxanthine [1]
  FACS-Seq fitted mean (log10): 0.19 ± 0.04
Hypoxanthine [2]
  normalized RNA/DNA level with ligand (log10): 1.76 ± 0.022
Hypoxanthine [3]
  normalized RNA/DNA level without ligand (log10): 1.17 ± 0.065
Hypoxanthine [4]
  FACS-Seq fitted mean (log10): 0.6252 ± 0.0039

## GUGUAU
Hypoxanthine [1]
  FACS-Seq fitted mean (log10): 0.314 ± 0.018
Hypoxanthine [2]
  normalized RNA/DNA level with ligand (log10): 1.91 ± 0.056
Hypoxanthine [3]
  normalized RNA/DNA level without ligand (log10): 1.737 ± 0.017
Hypoxanthine [4]
  FACS-Seq fitted mean (log10): 0.33 ± 0.021
